From patent US20210032299A1 (Eli Lilly, published 2021)
Starred links: 1 amine or outer side, 2 acyl side, 3 side chain; linkers in the order of their positions; H or OH if unused. Non-standard residues stand in square brackets, D forms with d. Groups on a side chain read outwards from the residue. No end group written: not given here. *: point of attachment. C20 diacid = O=C(O)CCCCCCCCCCCCCCCCCCC(=O)*; γGlu = O=C(O)[C@H](CCC(=O)[*:2])N[*:1]; 4Pal = N[C@@H](Cc1ccncc1)C(=O)O; αMeL = CC(C)C[C@](C)(N)C(=O)O; AEEA = NCCOCCOCC(=O)O; Aib = CC(C)(N)C(=O)O

T1: human glucose-dependent insulinotropic peptide receptor (human, UniProt P48546 22-466)
T1 sequence (looked up): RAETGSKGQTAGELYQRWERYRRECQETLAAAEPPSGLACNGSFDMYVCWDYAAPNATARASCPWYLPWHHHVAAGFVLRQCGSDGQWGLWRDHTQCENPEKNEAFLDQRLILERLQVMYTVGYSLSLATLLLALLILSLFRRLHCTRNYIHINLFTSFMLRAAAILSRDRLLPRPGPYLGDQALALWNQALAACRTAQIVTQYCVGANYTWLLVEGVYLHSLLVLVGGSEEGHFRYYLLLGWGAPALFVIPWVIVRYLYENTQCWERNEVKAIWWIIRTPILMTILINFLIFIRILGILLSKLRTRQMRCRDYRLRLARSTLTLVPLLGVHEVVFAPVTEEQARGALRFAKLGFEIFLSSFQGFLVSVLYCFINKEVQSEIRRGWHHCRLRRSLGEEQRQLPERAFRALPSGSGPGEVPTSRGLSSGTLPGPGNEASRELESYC


Columns and labels:
Assay in all cases: cell-based or functional assay
human GLP-1 receptor = human GLP-1 receptor (human, UniProt P43220 24-463)
human glucagon receptor = human glucagon receptor (human, UniProt P47871 26-477)
[1] = biological target: T1, human glucose-dependent insulinotropic …

Sequence of human glucagon receptor (P47871 26-477): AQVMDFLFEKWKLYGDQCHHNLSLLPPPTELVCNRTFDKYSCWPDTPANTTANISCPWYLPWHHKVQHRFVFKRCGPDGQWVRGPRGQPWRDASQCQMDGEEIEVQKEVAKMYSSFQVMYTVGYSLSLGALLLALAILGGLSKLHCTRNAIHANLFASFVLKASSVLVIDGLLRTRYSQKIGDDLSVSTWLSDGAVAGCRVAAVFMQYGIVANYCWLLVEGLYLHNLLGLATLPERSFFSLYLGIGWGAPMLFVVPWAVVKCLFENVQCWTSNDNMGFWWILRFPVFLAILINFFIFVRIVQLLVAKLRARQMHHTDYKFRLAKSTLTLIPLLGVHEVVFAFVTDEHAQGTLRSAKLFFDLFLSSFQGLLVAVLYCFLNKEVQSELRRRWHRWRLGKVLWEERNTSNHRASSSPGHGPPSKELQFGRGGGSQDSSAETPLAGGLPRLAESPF

Row | Binder | hGLP1R cAMP Rel EC50 (human GLP-1 receptor) [nM] | hGcgR cAMP Rel EC50 (human glucagon receptor) [nM] | hGIPR cAMP Rel EC50 [1] [nM]
1 | Y[Aib]EGTFISDYSI[αMeL]LDKK([AEEA-AEEA-γGlu-C20 diacid])HQ[Aib]EFVE[4Pal]LLATGPSSGAPPPS-NH2 (N-terminus assumed; SMILES CC[C@H](C)[C@H](NC(=O)[C@H](Cc1ccccc1)NC(=O)[C@@H](NC(=O)CNC(=O)[C@H](CCC(=O)O)NC(=O)C(C)(C)NC(=O)[C@@H](N)Cc1ccc(O)cc1)[C@@H](C)O)C(=O)N[C@@H](CO)C(=O)N[C@@H](CC(=O)O)C(=O)N[C@@H](Cc1ccc(O)cc1)C(=O)N[C@@H](CO)C(=O)N[C@H](C(=O)N[C@@](C)(CC(C)C)C(=O)N[C@@H](CC(C)C)C(=O)N[C@@H](CC(=O)O)C(=O)N[C@@H](CCCCN)C(=O)N[C@@H](CCCCNC(=O)COCCOCCNC(=O)COCCOCCNC(=O)CC[C@H](NC(=O)CCCCCCCCCCCCCCCCCCC(=O)O)C(=O)O)C(=O)N[C@@H](Cc1c[nH]cn1)C(=O)N[C@@H](CCC(N)=O)C(=O)NC(C)(C)C(=O)N[C@@H](CCC(=O)O)C(=O)N[C@@H](Cc1ccccc1)C(=O)N[C@H](C(=O)N[C@@H](CCC(=O)O)C(=O)N[C@@H](Cc1ccncc1)C(=O)N[C@@H](CC(C)C)C(=O)N[C@@H](CC(C)C)C(=O)N[C@@H](C)C(=O)N[C@H](C(=O)NCC(=O)N1CCC[C@H]1C(=O)N[C@@H](CO)C(=O)N[C@@H](CO)C(=O)NCC(=O)N[C@@H](C)C(=O)N1CCC[C@H]1C(=O)N1CCC[C@H]1C(=O)N1CCC[C@H]1C(=O)N[C@@H](CO)C(N)=O)[C@@H](C)O)C(C)C)[C@@H](C)CC) [Example 58] | > 5000 | > 5000 | 0.0183
2 | Y[Aib]EGTFISDYSI[αMeL]LDKK([AEEA-AEEA-γGlu-C20 diacid])HQ[Aib]EFVE[4Pal]LLAAGPSSGAPPPS-NH2 (N-terminus assumed; SMILES CC[C@H](C)[C@H](NC(=O)[C@H](Cc1ccccc1)NC(=O)[C@@H](NC(=O)CNC(=O)[C@H](CCC(=O)O)NC(=O)C(C)(C)NC(=O)[C@@H](N)Cc1ccc(O)cc1)[C@@H](C)O)C(=O)N[C@@H](CO)C(=O)N[C@@H](CC(=O)O)C(=O)N[C@@H](Cc1ccc(O)cc1)C(=O)N[C@@H](CO)C(=O)N[C@H](C(=O)N[C@@](C)(CC(C)C)C(=O)N[C@@H](CC(C)C)C(=O)N[C@@H](CC(=O)O)C(=O)N[C@@H](CCCCN)C(=O)N[C@@H](CCCCNC(=O)COCCOCCNC(=O)COCCOCCNC(=O)CC[C@H](NC(=O)CCCCCCCCCCCCCCCCCCC(=O)O)C(=O)O)C(=O)N[C@@H](Cc1c[nH]cn1)C(=O)N[C@@H](CCC(N)=O)C(=O)NC(C)(C)C(=O)N[C@@H](CCC(=O)O)C(=O)N[C@@H](Cc1ccccc1)C(=O)N[C@H](C(=O)N[C@@H](CCC(=O)O)C(=O)N[C@@H](Cc1ccncc1)C(=O)N[C@@H](CC(C)C)C(=O)N[C@@H](CC(C)C)C(=O)N[C@@H](C)C(=O)N[C@@H](C)C(=O)NCC(=O)N1CCC[C@H]1C(=O)N[C@@H](CO)C(=O)N[C@@H](CO)C(=O)NCC(=O)N[C@@H](C)C(=O)N1CCC[C@H]1C(=O)N1CCC[C@H]1C(=O)N1CCC[C@H]1C(=O)N[C@@H](CO)C(N)=O)C(C)C)[C@@H](C)CC) [Example 59] | > 5000 | > 5000 | 0.0202
